Experimental findings from the supplement of paper PMC7125110 are described below.

Sequences and labels used below:
B1: glmS ribozyme (parent)
chain: AUAAAAGCGCCAGAACUACAGAAAUGUAGUUGACGAGGAGGAGGUUUAUCGAAUUUUCGGCGGAUGCCUCCAAA

± gives the standard error. Fewer inactive variants are shown than the library holds.

Common to all, as to conditions: with glucosamine-6-phosphate
Variants of B1 are the subject of data set [1]. In words: self-cleavage kobs at 160 uM GlcN6P; higher = faster cleavage; RNA array. Summed up:
(§1)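 Glucosamine-6-phosphate in HEPES/KCl/Mg(OAc)2 buffer, at 40 μM to 10 mM, was flowed over barcoded ribozyme variants transcribed in situ by E. coli RNA polymerase on sequenced MiSeq chips. Tracking was through a hybridised Cy3 probe at 37 °C. kobs, kcat and KM came from exponential decay fits and weighted Michaelis–Menten fits of normalised per-tile medians.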

In data set [2] the parent is B1. In words: self-cleavage kobs at 640 uM GlcN6P; higher = faster cleavage; RNA array. The method in brief:
as §1

In data set [3] the parent is B1. In words: self-cleavage kobs at 2500 uM GlcN6P; higher = faster cleavage; RNA array. The method in brief: as §1
Data set [4] covers variants of B1. Nature of the data set: self-cleavage kobs at 10000 uM GlcN6P; higher = faster cleavage; RNA array. The method in brief:
as §1

In the case of A39G A52U C61G A64C, the “self-cleavage kobs at 160 uM GlcN6P” value in the data set with glucosamine-6-phosphate [1] is under 1e-05 s⁻¹. In addition, the “self-cleavage kobs at 640 uM GlcN6P” value in the data set with glucosamine-6-phosphate [2] is under 1e-05 s⁻¹. The “self-cleavage kobs at 2500 uM GlcN6P” value in the data set with glucosamine-6-phosphate [3] was under 1e-05 s⁻¹.
As to C8U G40U G43U, the “self-cleavage kobs at 160 uM GlcN6P” value in the data set with glucosamine-6-phosphate [1] was under 1e-05 s⁻¹. Besides, in the data set with glucosamine-6-phosphate [2], the “self-cleavage kobs at 640 uM GlcN6P” value was under 1e-05 s⁻¹. Further, the “self-cleavage kobs at 2500 uM GlcN6P” value in the data set with glucosamine-6-phosphate [3] is under 1e-05 s⁻¹.
As to A14C A48U G60U, the “self-cleavage kobs at 160 uM GlcN6P” value with glucosamine-6-phosphate [1] is under 1e-05 s⁻¹. Moreover, the “self-cleavage kobs at 640 uM GlcN6P” value with glucosamine-6-phosphate [2] is under 1e-05 s⁻¹.
For U31G A33U U47G, the “self-cleavage kobs at 160 uM GlcN6P” value with glucosamine-6-phosphate [1] is under 1e-05 s⁻¹.
Regarding C34U U45C U65A, the “self-cleavage kobs at 160 uM GlcN6P” value with glucosamine-6-phosphate [1] was under 1e-05 s⁻¹. In addition, the “self-cleavage kobs at 640 uM GlcN6P” value in the data set with glucosamine-6-phosphate [2] is under 1e-05 s⁻¹.
Turning to G37C G43C A52C, the “self-cleavage kobs at 160 uM GlcN6P” value with glucosamine-6-phosphate [1] is under 1e-05 s⁻¹. Also, the “self-cleavage kobs at 2500 uM GlcN6P” value with glucosamine-6-phosphate [3] is under 1e-05 s⁻¹.
Regarding U30G C71G, in the data set with glucosamine-6-phosphate [1], the “self-cleavage kobs at 160 uM GlcN6P” value was found to be 6.06e-05 ± 2.9e-05 s⁻¹. Further, the “self-cleavage kobs at 640 uM GlcN6P” value with glucosamine-6-phosphate [2] is 9.91e-05 ± 2.4e-05 s⁻¹. For the same variant, the “self-cleavage kobs at 2500 uM GlcN6P” value with glucosamine-6-phosphate [3] was 0.000179 ± 4.3e-05 s⁻¹. The “self-cleavage kobs at 10000 uM GlcN6P” value with glucosamine-6-phosphate [4] is 0.000543 ± 0.00012 s⁻¹.
Regarding G7A G41U, in the data set with glucosamine-6-phosphate [1], the “self-cleavage kobs at 160 uM GlcN6P” value was under 1e-05 s⁻¹. In addition, the “self-cleavage kobs at 640 uM GlcN6P” value with glucosamine-6-phosphate [2] is under 1e-05 s⁻¹. The “self-cleavage kobs at 10000 uM GlcN6P” value in the data set with glucosamine-6-phosphate [4] was under 1e-05 s⁻¹.
On to G7A U30C G60U A64C, for which the “self-cleavage kobs at 160 uM GlcN6P” value in the data set with glucosamine-6-phosphate [1] was under 1e-05 s⁻¹. For the same variant, in the data set with glucosamine-6-phosphate [3], the “self-cleavage kobs at 2500 uM GlcN6P” value is under 1e-05 s⁻¹.
On to A6U G40A A52C, for which the “self-cleavage kobs at 160 uM GlcN6P” value with glucosamine-6-phosphate [1] was under 1e-05 s⁻¹. Also, the “self-cleavage kobs at 640 uM GlcN6P” value in the data set with glucosamine-6-phosphate [2] was under 1e-05 s⁻¹. Besides, the “self-cleavage kobs at 2500 uM GlcN6P” value with glucosamine-6-phosphate [3] was under 1e-05 s⁻¹.
As for U45C U46C, the “self-cleavage kobs at 160 uM GlcN6P” value with glucosamine-6-phosphate [1] came out at 0.000106 ± 3e-05 s⁻¹. The “self-cleavage kobs at 640 uM GlcN6P” value in the data set with glucosamine-6-phosphate [2] is 0.000335 ± 5.7e-05 s⁻¹. In addition, the “self-cleavage kobs at 2500 uM GlcN6P” value with glucosamine-6-phosphate [3] is 0.00111 ± 0.00037 s⁻¹.
On to A6G C8A A48C, for which the “self-cleavage kobs at 160 uM GlcN6P” value in the data set with glucosamine-6-phosphate [1] is under 1e-05 s⁻¹.
With A36U A42U, the “self-cleavage kobs at 160 uM GlcN6P” value with glucosamine-6-phosphate [1] is under 1e-05 s⁻¹. The “self-cleavage kobs at 640 uM GlcN6P” value in the data set with glucosamine-6-phosphate [2] is under 1e-05 s⁻¹. In addition, the “self-cleavage kobs at 2500 uM GlcN6P” value in the data set with glucosamine-6-phosphate [3] was under 1e-05 s⁻¹. Besides, the “self-cleavage kobs at 10000 uM GlcN6P” value with glucosamine-6-phosphate [4] is under 1e-05 s⁻¹.
For G7U C34A U65G, the “self-cleavage kobs at 160 uM GlcN6P” value with glucosamine-6-phosphate [1] was under 1e-05 s⁻¹. Also, the “self-cleavage kobs at 640 uM GlcN6P” value with glucosamine-6-phosphate [2] was under 1e-05 s⁻¹.
Turning to G13A G41C C67U, the “self-cleavage kobs at 160 uM GlcN6P” value with glucosamine-6-phosphate [1] is under 1e-05 s⁻¹. Moreover, the “self-cleavage kobs at 640 uM GlcN6P” value with glucosamine-6-phosphate [2] is under 1e-05 s⁻¹. In addition, the “self-cleavage kobs at 2500 uM GlcN6P” value with glucosamine-6-phosphate [3] is under 1e-05 s⁻¹.
With A48C C50A A52G, the “self-cleavage kobs at 160 uM GlcN6P” value in the data set with glucosamine-6-phosphate [1] is under 1e-05 s⁻¹. Besides, the “self-cleavage kobs at 2500 uM GlcN6P” value in the data set with glucosamine-6-phosphate [3] was under 1e-05 s⁻¹.
Take G7C G13C A48G C70A: the “self-cleavage kobs at 160 uM GlcN6P” value in the data set with glucosamine-6-phosphate [1] was under 1e-05 s⁻¹. Further, in the data set with glucosamine-6-phosphate [2], the “self-cleavage kobs at 640 uM GlcN6P” value was under 1e-05 s⁻¹. Further, in the data set with glucosamine-6-phosphate [3], the “self-cleavage kobs at 2500 uM GlcN6P” value was under 1e-05 s⁻¹.
Turning to G9C G37A U46A A52U G60A C61A, in the data set with glucosamine-6-phosphate [1], the “self-cleavage kobs at 160 uM GlcN6P” value was under 1e-05 s⁻¹. Moreover, the “self-cleavage kobs at 2500 uM GlcN6P” value with glucosamine-6-phosphate [3] is under 1e-05 s⁻¹.
Consider G9A A52U C70U, for which the “self-cleavage kobs at 160 uM GlcN6P” value with glucosamine-6-phosphate [1] is under 1e-05 s⁻¹.
For G7U G9A, the “self-cleavage kobs at 160 uM GlcN6P” value with glucosamine-6-phosphate [1] is under 1e-05 s⁻¹. For the same variant, the “self-cleavage kobs at 640 uM GlcN6P” value with glucosamine-6-phosphate [2] was under 1e-05 s⁻¹. Moreover, the “self-cleavage kobs at 2500 uM GlcN6P” value with glucosamine-6-phosphate [3] is under 1e-05 s⁻¹.
Take A12G G32C C71A: the “self-cleavage kobs at 160 uM GlcN6P” value with glucosamine-6-phosphate [1] is under 1e-05 s⁻¹. Moreover, the “self-cleavage kobs at 640 uM GlcN6P” value with glucosamine-6-phosphate [2] was under 1e-05 s⁻¹.
As to A15C A36G G38U, the “self-cleavage kobs at 160 uM GlcN6P” value with glucosamine-6-phosphate [1] was under 1e-05 s⁻¹. Besides, in the data set with glucosamine-6-phosphate [3], the “self-cleavage kobs at 2500 uM GlcN6P” value is under 1e-05 s⁻¹.
Take G35U A39U: in the data set with glucosamine-6-phosphate [1], the “self-cleavage kobs at 160 uM GlcN6P” value was under 1e-05 s⁻¹. The “self-cleavage kobs at 640 uM GlcN6P” value with glucosamine-6-phosphate [2] is under 1e-05 s⁻¹. In the data set with glucosamine-6-phosphate [3], the “self-cleavage kobs at 2500 uM GlcN6P” value was under 1e-05 s⁻¹.
In the case of G29U A36G A52G, in the data set with glucosamine-6-phosphate [1], the “self-cleavage kobs at 160 uM GlcN6P” value is under 1e-05 s⁻¹. Besides, the “self-cleavage kobs at 2500 uM GlcN6P” value with glucosamine-6-phosphate [3] was under 1e-05 s⁻¹.
As for C61G G62U, the “self-cleavage kobs at 160 uM GlcN6P” value with glucosamine-6-phosphate [1] was under 1e-05 s⁻¹. Besides, in the data set with glucosamine-6-phosphate [2], the “self-cleavage kobs at 640 uM GlcN6P” value is under 1e-05 s⁻¹. In addition, the “self-cleavage kobs at 2500 uM GlcN6P” value with glucosamine-6-phosphate [3] is under 1e-05 s⁻¹.
On to A64U C68U, for which the “self-cleavage kobs at 160 uM GlcN6P” value in the data set with glucosamine-6-phosphate [1] was under 1e-05 s⁻¹. The “self-cleavage kobs at 640 uM GlcN6P” value in the data set with glucosamine-6-phosphate [2] is under 1e-05 s⁻¹.
